± gives the uncertainty stated by the source.
Test: protein stability index of a GFP-peptide fusion (yeast GPS) (PSI 1-4); higher = more stable; sorted into four equal gates, so the index is relative within each strain
Procedure, shortened: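 Each library plasmid carries Cherry plus GFP with a tiled 17-residue yeast protein peptide fused downstream, and the pooled library was carried in yeast. Mid-log cultures in leucine-free medium were sorted into four equal gates by GFP/Cherry ratio. Reads from Illumina sequencing of PCR-amplified plasmids from each gate were assigned to strains by barcodes. Per peptide, the protein stability index was computed as the summed products of gate read frequency and gate number.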

Sequence	protein stability index (doa10∆)	protein stability index (pdr5∆)	protein stability index (san1∆)	protein stability index (ubr1∆)
NGDEGDDENEPKRKRRL [YOR098C/NUP1]	3.38 ± 0.11	3.24 ± 0.14	3.17 ± 0.083	3.06 ± 0.071
NGDKMPLKFKLGPLSYQ [YJR042W/NUP85]	2.94 ± 0.12	3.09 ± 0.096	3.02 ± 0.096	3.27 ± 0.12
NGGKFSKSNLIHNYDSK [RGR1]	2.4 ± 0.058	2.71 ± 0.06	3.11 ± 0.047	2.7 ± 0.064
NGGLIHVVTREKGPQVC [RPO21]	2.93 ± 0.14	3.09 ± 0.11	2.37 ± 0.13	2.96 ± 0.12
NGLGTSHINTNVGDNNS [ARP7]	3.13 ± 0.12	2.77 ± 0.099	2.74 ± 0.082	3.28 ± 0.11
NGTVNNNSALSNVNSDI [RPT3]	2.91 ± 0.1	2.77 ± 0.067	1.81 ± 0.087	2.15 ± 0.051
NHVMYTEVSRKSMKYVK [ECM29]	2.37 ± 0.055	2.61 ± 0.06	2.27 ± 0.078	2.23 ± 0.039
NIAFDAHMSIGCLHKGK [YML031W/NDC1]	3.07 ± 0.15	2.7 ± 0.089	1.55 ± 0.15	2.27 ± 0.086
NIERKQTRKEYNTSILE [SIN4]	3.11 ± 0.13	2.94 ± 0.062	3.05 ± 0.081	3.23 ± 0.082
NIFKAEMDSVSKSMKFS [CSN9]	2.58 ± 0.065	2.58 ± 0.066	2.71 ± 0.051	2.85 ± 0.044
NIIQAKRDAKAAGSYYV [RPL7A]	3.39 ± 0.11	3.24 ± 0.082	3.11 ± 0.057	2.64 ± 0.087
NIKFLSKLEGTINKAVQ [ESC2]	2.86 ± 0.11	3.35 ± 0.14	2.72 ± 0.1	2.91 ± 0.1
NIKPVEQHHINNLKNSG [GAL11]	2.69 ± 0.062	2.59 ± 0.049	2.36 ± 0.069	2.47 ± 0.041
NIMVTIDGCVKIGDLGL [SSN3]	3.27 ± 0.16	3.12 ± 0.14	3.5 ± 0.069	3.43 ± 0.052
NISHLLEIASSIDCLLI [SWI1]	2.21 ± 0.068	2.16 ± 0.046	2.29 ± 0.078	2.04 ± 0.035
NISISTSELGNDDFSEV [BRR2]	2.94 ± 0.12	3.19 ± 0.096	2.46 ± 0.078	3.12 ± 0.077
NISNAKLANFFSKKGNE [YAR002W/NUP60]	2.83 ± 0.092	3.05 ± 0.062	2.88 ± 0.07	2.33 ± 0.079
NIVKLCFVHRYKDVSDL [IRR1]	2.68 ± 0.084	2.71 ± 0.059	2.87 ± 0.055	2.89 ± 0.058
NIVSDAGANDTSNNETN [GRR1]	2.79 ± 0.051	2.37 ± 0.2	1.82 ± 0.15	2.71 ± 0.099
NKAQAKMDKRAKNSDSA [RPL8A]	3.43 ± 0.094	3.38 ± 0.11	3.27 ± 0.047	3.54 ± 0.067
NKAQAKMDKRAKTSDSA [RPL8B]	3.34 ± 0.23	3.02 ± 0.12	3.27 ± 0.066	3.31 ± 0.071
NKASLAQYEVLANYLTS [QCR2]	2.42 ± 0.063	2.41 ± 0.051	2.5 ± 0.075	2.64 ± 0.081
NKGWKLQSLNESKDLLR [SRB4]	2.81 ± 0.13	2.57 ± 0.1	2.32 ± 0.11	2.93 ± 0.15
NKIIPNVGLCITIYDLL [RPC25]	1.43 ± 0.082	1.29 ± 0.068	1.29 ± 0.13	1.5 ± 0.067
NKKIYQWNKLTSFDIKR [POP6]	2.93 ± 0.074	2.95 ± 0.079	2.18 ± 0.2	3.03 ± 0.083
NKKLIKKLSKKYNAFIA [RPL1A]	1.45 ± 0.048	1.94 ± 0.052	1.45 ± 0.12	1.88 ± 0.049
NKLGALKTNFETEWNLQ [RPB11]	2.68 ± 0.064	2.9 ± 0.077	3.22 ± 0.12	2.95 ± 0.091

Sequence	protein stability index (doa10∆)	protein stability index (pdr5∆)	protein stability index (san1∆)	protein stability index (ubr1∆)
NKNGNAVCSTATVVSTN [PGD1]	2.77 ± 0.059	2.83 ± 0.061	2.3 ± 0.073	2.81 ± 0.053
NKTNNEDLFDDYPSTSL [NUT1]	2.22 ± 0.078	3.09 ± 0.054	2.85 ± 0.12	1.79 ± 0.061
NKYQIKKAVKELYEVDV [RPL25]	3.03 ± 0.077	3.15 ± 0.078	3.12 ± 0.042	3.21 ± 0.06
NLKYLDNSNVMTVKLES [RGR1]	2.23 ± 0.18	1.87 ± 0.11	2.04 ± 0.19	2.66 ± 0.12
NLLKFITSNHKSSVPGS [RPN3]	2.55 ± 0.11	2.77 ± 0.1	2.07 ± 0.067	2.41 ± 0.087
NLMILNTKVPVDIVNQW [YML103C/NUP188]	1.68 ± 0.071	2.12 ± 0.084	1.84 ± 0.13	2.08 ± 0.055
NLQREIDQAHVSEITKL [RPN14]	2.61 ± 0.044	2.81 ± 0.058	2.75 ± 0.054	2.69 ± 0.05
NLQTADTVIIFDTDWNP [SNF2]	2.57 ± 0.14	2.96 ± 0.091	2.8 ± 0.078	2.34 ± 0.064
NLQVELLSEHDDHNGEV [YGL100W/SEH1]	3.12 ± 0.088	3.2 ± 0.071	2.83 ± 0.06	3.37 ± 0.055
NLRLKILTIIEEYKKSL [GRR1]	1.65 ± 0.068	1.6 ± 0.055	1.86 ± 0.083	1.61 ± 0.07
NLSVTSPYNADFDGDEM [RPO21]	2.83 ± 0.063	3.14 ± 0.059	2.96 ± 0.061	3.04 ± 0.042
NLTDEGYQWGEENKDIM [PRP8]	2.81 ± 0.21	–	–	3.2 ± 0.23
NLTRGINLRKVAEKMNG [RPT6]	1.63 ± 0.069	1.47 ± 0.05	2.31 ± 0.052	1.28 ± 0.044
NLVKEKEALQNNIFKEF [SMC1]	3.51 ± 0.12	3.06 ± 0.12	2.99 ± 0.12	–
NMLLDPAANESEVANNG [RRP42]	2.05 ± 0.082	2.74 ± 0.059	2.64 ± 0.083	2.34 ± 0.042
NMPNCDYLTLNKVVVNL [RPN2]	2.99 ± 0.054	2.88 ± 0.061	2.58 ± 0.068	3.02 ± 0.051
NNANVLGGEINDNEDDD [BRR2]	3.3 ± 0.095	3.2 ± 0.082	3.3 ± 0.072	2.98 ± 0.061
NNAVRFSKQCLISNAIY [ECM29]	1.7 ± 0.078	2.39 ± 0.088	1.82 ± 0.11	1.08 ± 0.094
NNCEDFVSRPDRTMLAP [FAS1]	3.28 ± 0.25	2.98 ± 0.17	2.93 ± 0.26	3.2 ± 0.11
NNDDDDNSVEQGRRLGE [MCD1]	–	3.46 ± 0.21	–	3.37 ± 0.12
NNDFKLSIDKVLKKPNR [RET1]	2.06 ± 0.092	2.84 ± 0.12	3.01 ± 0.1	2.94 ± 0.13
NNDGSYGLFLKYHKEQF [SRB8]	2.61 ± 0.086	2.34 ± 0.07	2.12 ± 0.12	1.82 ± 0.069
NNESNKNNNGDEKNKNN [MED2]	3.21 ± 0.074	3.39 ± 0.066	3.33 ± 0.038	3.31 ± 0.051
NNGSKDHGDGILLIDSE [RPN9]	3.37 ± 0.16	3.19 ± 0.17	3.38 ± 0.063	3.41 ± 0.21
NNIDQSLILKESGSTPI [YAR002W/NUP60]	1.85 ± 0.085	1.78 ± 0.1	–	1.61 ± 0.064
NNIRQAICRYANVIKAL [RRP4]	1.41 ± 0.11	1.36 ± 0.07	1.17 ± 0.14	1.43 ± 0.14
NNKFANKIIPNVGLCIT [RPC25]	2.71 ± 0.07	3.04 ± 0.082	2.94 ± 0.054	3 ± 0.081

Sequence	protein stability index (doa10∆)	protein stability index (pdr5∆)	protein stability index (san1∆)	protein stability index (ubr1∆)
NNLEPRQTTSNTGLLNK [RPN11]	3.2 ± 0.062	3.24 ± 0.061	3.14 ± 0.044	3.32 ± 0.046
NNLKNSGNSANNMNVNM [GAL11]	2.92 ± 0.046	2.9 ± 0.041	2.87 ± 0.035	3.02 ± 0.039
NNLSNQLETLTGSIRHR [CSE2]	3.06 ± 0.096	2.98 ± 0.06	3.04 ± 0.049	3.13 ± 0.059
NNNNSTRPQMPSRTRET [GRR1]	2.937 ± 0.027	3.108 ± 0.027	2.949 ± 0.024	3.033 ± 0.021
NNQQRLLLKKLDNFQKS [SMC3]	2.55 ± 0.06	2.64 ± 0.068	2.41 ± 0.054	2.45 ± 0.043
NNTKAGRRKTWKRQNTL [RPL15A]	2.65 ± 0.059	2.95 ± 0.07	2.44 ± 0.083	2.87 ± 0.12
NNTNNANSSITPAFGSN [YJL041W/NSP1]	3.06 ± 0.11	3.06 ± 0.11	2.86 ± 0.11	3.06 ± 0.12
NNTTTTSTKPSFSFGAP [YOR098C/NUP1]	3.26 ± 0.11	3.38 ± 0.1	3.04 ± 0.056	3.01 ± 0.076
NNVDNKYKSGGKFSFSP [SSN2]	2.23 ± 0.054	2.37 ± 0.044	2.63 ± 0.064	2.17 ± 0.038
NPLADAEEALEPSYIFE [PRE4]	3.09 ± 0.072	2.83 ± 0.077	3.08 ± 0.055	3.12 ± 0.06
NPNPSSQRAQVVTMSVK [RPC37]	2.3 ± 0.067	2.83 ± 0.071	2.1 ± 0.068	2.42 ± 0.075
NPSITRLEEESSWQIYS [RRP4]	–	3.07 ± 0.21	–	2.07 ± 0.097
NQIADLSGKFSTIPTRE [ROX3]	2.98 ± 0.091	2.96 ± 0.093	2.81 ± 0.071	3.23 ± 0.07
NQIQRQQQQQFRHHVQI [SNF5]	1.86 ± 0.04	2.08 ± 0.045	1.88 ± 0.085	1.91 ± 0.03
NQKIPDNVIVINHKINN [SIR3]	1.93 ± 0.06	2.03 ± 0.053	1.79 ± 0.066	2.14 ± 0.041
NQNQRNVNETMSRSLAN [SMC3]	3.11 ± 0.12	2.65 ± 0.12	3.15 ± 0.059	2.86 ± 0.077
NQQPQQQQQQQQNPKFL [SWI1]	2.96 ± 0.048	3.02 ± 0.04	2.989 ± 0.026	2.9 ± 0.029
NQQQPPQDILSKLYLLL [SNF11]	2.09 ± 0.042	2.55 ± 0.051	2.47 ± 0.056	2.54 ± 0.045
NQSAYEWNGKSFQKKSN [ISW2]	3.16 ± 0.11	3.12 ± 0.17	3.09 ± 0.064	2.99 ± 0.13
NRYAYVLSSLMFANMKV [LRP1]	2.47 ± 0.064	2.25 ± 0.058	2.08 ± 0.068	3.01 ± 0.047
NSDDFFMDNSYDIDEID [ESC2]	2.27 ± 0.058	2.64 ± 0.077	2.64 ± 0.075	2.31 ± 0.051
NSEKYYDEDPYGFEDES [RPB2]	3.47 ± 0.18	3.32 ± 0.079	3.27 ± 0.066	3.25 ± 0.13
NSGIIPGNRNADNVDKI [FAS2]	2.52 ± 0.083	2.52 ± 0.1	3.03 ± 0.091	3.04 ± 0.05
NSIDVPIRINSTEEIEY [YMR129W/POM152]	1.76 ± 0.055	2.27 ± 0.058	2.01 ± 0.071	2.6 ± 0.034
NSILSVRDPWSIDFRTY [SRB2]	2.71 ± 0.1	2.68 ± 0.14	2.48 ± 0.22	2.98 ± 0.1
NSKMPTRFPPAVFYTPK [PRP8]	2.76 ± 0.056	3.09 ± 0.068	2.94 ± 0.054	2.93 ± 0.061

Reference: the supplement of paper PMC9732359
